Experimental data as given in patent US20250066452A1, “SYNTHETIC AMPHIPATHIC HELICAL PEPTIDES AND TREATMENT METHODS USING SYNTHETIC AMPHIPATHIC HELICAL PEPTIDES” (UNIVERSITY OF MARYLAND, BALTIMORE, priority 2022, published 2025).

Assays:
[1] = target: T1, CD36 (Homo sapiens, UniProt P16671); experiment: IL-8 in conditioned medium (ELISA) of CD36-expressing HEK293 cells after 20 hours incubation with CD36 ligands; type: cell-based; conditions: CD36-expressing HEK293 cells; increasing ligand concentrations; 20 hours (FIG. 8)
T1 construct: expressed in transfected cells; host or cells: HEK293
T1 sequence (P16671 whole entry): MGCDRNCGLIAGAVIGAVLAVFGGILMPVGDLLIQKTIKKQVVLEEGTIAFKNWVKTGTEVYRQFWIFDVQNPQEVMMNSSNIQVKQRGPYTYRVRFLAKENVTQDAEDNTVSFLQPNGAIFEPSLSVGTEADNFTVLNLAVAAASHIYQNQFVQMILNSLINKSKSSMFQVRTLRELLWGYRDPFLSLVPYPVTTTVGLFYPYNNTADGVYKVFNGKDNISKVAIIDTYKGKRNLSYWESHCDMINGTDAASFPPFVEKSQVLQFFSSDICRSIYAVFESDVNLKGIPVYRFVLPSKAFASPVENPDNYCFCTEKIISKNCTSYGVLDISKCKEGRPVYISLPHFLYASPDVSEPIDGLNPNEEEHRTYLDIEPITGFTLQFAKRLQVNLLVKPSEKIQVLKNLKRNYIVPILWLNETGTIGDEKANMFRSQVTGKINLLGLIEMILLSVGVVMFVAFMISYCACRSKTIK
Procedure: (§1) Following 20 hours incubation of wild-type (WT) and CD36-expressing (CD36+) HEK293 cells with increasing concentrations of CD36 ligands, the IL-8 levels were determined in conditioned medium by ELISA.
Following 20 hours incubation of CD36-expressing cells with the indicated amounts of the ligands, the IL-8 levels were determined in conditioned medium.
(§2) To study this, the applicant conducted cell culture experiments using wildtype (WT) and CD36+ expressing (CD36+) HEK293 cells, treated with increasing amounts of CD36 ligands. Specifically, the ligands tested were the PAMP lipopolysaccharide (LPS) and the DAMPs high mobility group box 1 protein (HMGB1), Histone H3B, and heat shock protein 60 (HSP60). […] Similarly to HSP60, it is presumed that HSP70 and HSP90 also cause inflammation mediated by the CD36 receptor, and which may be alleviated by the disclosed peptides.
Additionally, the applicant studied the effects of the above-referenced SAHP L37pA as an inhibitor of CD36-dependent, PAMP/DAMP-induced pro-inflammatory response. See FIGS. 9(a)-9(c) To study this, the applicant conducted cell culture experiments using CD36+ HEK293 cells, treated with increasing amounts of CD36 ligands. […] As controls, no treatment, L37pA alone, and L3D alone were administered.
As controls, no treatment, L37pA alone, and L3D alone were administered. […]

[2] = test system: wild-type (WT) HEK293 cells; experiment: IL-8 in conditioned medium (ELISA) of wild-type HEK293 cells after 20 hours incubation with CD36 ligands; type: cell-based; conditions: wildtype HEK293 cells; increasing ligand concentrations; 20 hours (FIG. 8)
Procedure: as §1, §2

B1: heat shock protein 60 (protein, UniProt P10809 27-573, looked up)
60 kDa heat shock protein, …: AKDVKFGADARALMLQGVDLLADAVAVTMGPKGRTVIIEQSWGSPKVTKDGVTVAKSIDLKDKYKNIGAKLVQDVANNTNEEAGDGTTTATVLARSIAKEGFEKISKGANPVEIRRGVMLAVDAVIAELKKQSKPVTTPEEIAQVATISANGDKEIGNIISDAMKKVGRKGVITVKDGKTLNDELEIIEGMKFDRGYISPYFINTSKGQKCEFQDAYVLLSEKKISSIQSIVPALEIANAHRKPLVIIAEDVDGEALSTLVLNRLKVGLQVVAVKAPGFGDNRKNQLKDMAIATGGAVFGEEGLTLNLEDVQPHDLGKVGEVIVTKDDAMLLKGKGDKAQIEKRIQEIIEQLDVTTSEYEKEKLNERLAKLSDGVAVLKVGGTSDVEVNEKKDRVTDALNATRAAVEEGIVLGGGCALLRCIPALDSLTPANEDQKIGIEIIKRTLKIPAMTIAKNAGVEGSLIVEKIMQSSSEVGYDAMAGDFVNMVEKGIIDPTKVVRTALLDAAGVASLLTTAEVVVTEIPKEEKDPGMGAMGGMGGGMGGGMF
notes: DAMP, CD36 ligand
IL-8 produced by cells treated with the ligand [1]: significant amount of IL-8 | IL-8 produced by cells treated with the ligand [2]: minimal amount of interleukin 8
